Laboratory results as given in paper PMC5586252, “PP2A-B′ holoenzyme substrate recognition, regulation and role in cytokinesis” (Cell Discovery, 2017).

B1: Cyk4 (1–177): Cyk4 construct (residue 1–177) containing the coiled-coil domain and a portion of the disordered region (protein, UniProt Q9H0H5 1-177, looked up, fragment)
chain: MDTMMLNVRNLFEQLVRRVEILSEGNEVQFIQLAKDFEDFRKKWQRTDHELGKYKDLLMKAETERSALDVKLKHARNQVDVEIKRRQRAEADCEKLERQIQLIREMLMCDTSGSIQLSEEQKSALAFLNRGQPSSSNAGNKRLSTIDESGSILSDISFDKTDESLDWDSSLVKTFKL
B2: pCyk4 (1–177): Cyk4 (1–177) phosphorylated in vitro by Plk1 (protein)
chain: GSMDTMMLNVRNLFEQLVRRVEILSEGNEVQFIQLAKDFEDFRKKWQRTDHELGKYKDLLMKAETERSALDVKLKHARNQVDVEIKRRQRAEADCEKLERQIQLIREMLMCDTSGSIQLSEEQKSALAFLNRGQPSSSNAGNKRLSTIDESGSILSDISFDKTDESLDWDSSLVKTFKL
modifications: phosphorylated by Plk1: mono- to pentakis-phosphorylated forms, no unphosphorylated form; sites of the tetrakis form S149, S157, S164 and S170; left off: GST, N-terminal, cleaved
notes: Cyk4 (1–177) phosphorylated in vitro by Plk1

Tested on: GST-B′γ1
Experiment: Titration pull-down of Cyk4 / pCyk4 by immobilized GST-B′γ1
Assay type: binding
Settings: 10 μg immobilized GST-B′γ1
Procedure: Next, we thoroughly examined Cyk4 phosphorylation sites by MS and the effect of each phosphorylation on B′ binding. […] Upon phosphorylation in vitro by Plk1, the interaction can be detected with Cyk4 concentration as low as 0.6 μM and the half maximum binding can be obtained with the concentration of pCyk4 (1–177) between 2.5 and 5 μM (Figure 4d). […] No unphosphorylated CyK4 is detected (Figure 4e, left panel). The most abundant species are 2pCyk4 and 3pCyk4 that correspond to bis- and tris-phosphorylated proteoforms, respectively (Figure 4e, left panel). Further tandem MS with collision-induced dissociation (CID) and electron capture dissociation (ECD) of 4pCyk4 pinpointed the four sites that are phosphorylated, S149, S157, S164 and S170 (Figure 4e, right panel). Phosphorylation at these four sites was previously reported collectively, but not simultaneously, in different studies. […] As 5pCyk4 represents a minor species of the pCyk4 (Figure 4e, left panel), we concluded that the increase of binding affinity between B′ and pCyk4 is largely contributed by phosphorylation at S149. […] These collectively confirmed that pCyk4 interacts with PP2A-B′ holoenzymes via the identified B′-binding motif that is responsive to primarily the Plk1 phosphorylation site at S149.
Approximately 10 μg of GST-tagged B′-binding motifs or GST-pCyk4 was bound to 10 μl of glutathione resin via GST tag. […]

Molecule	concentration at which interaction with GST-B′γ1 can be detected [µM]
B1	≥ 20
B2	0.6
